Experimental data as given in doi:10.1101/2022.08.08.503141 (bioRxiv, 2022).

Target: winged-helix domain 32C of human RPA (residues 172-270 of RPA2) (human, UniProt P15927 172-270)
Assay: NMR titration

Sequence of winged-helix domain 32C of human RPA (residues 172-270 of RPA2) (P15927 172-270): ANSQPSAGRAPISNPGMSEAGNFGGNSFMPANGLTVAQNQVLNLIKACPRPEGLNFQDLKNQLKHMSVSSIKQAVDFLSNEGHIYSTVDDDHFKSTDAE

binding result: binds
B1: harmonin homology domain 2 (HHD2) of human RTEL1, residues 1056-1140 (domain or fragment)
chain: GQHAVSAYLADARRALGSAGCSQLLAALTAYKQDDDLDKVLAVLAALTTAKPEDFPLLHRFSMFVRPHHKQRFSQTCTDLTGRPY
